This note sets out measurements from patent publication US20220017591A1 (AstraZeneca / MedImmune, published 2022).

Experiment in all cases: cell-based or functional assay
In test [1] the target is T1, mouse RXFP1 (mouse, UniProt Q6R6I7 1-758).
T1 sequence (looked up): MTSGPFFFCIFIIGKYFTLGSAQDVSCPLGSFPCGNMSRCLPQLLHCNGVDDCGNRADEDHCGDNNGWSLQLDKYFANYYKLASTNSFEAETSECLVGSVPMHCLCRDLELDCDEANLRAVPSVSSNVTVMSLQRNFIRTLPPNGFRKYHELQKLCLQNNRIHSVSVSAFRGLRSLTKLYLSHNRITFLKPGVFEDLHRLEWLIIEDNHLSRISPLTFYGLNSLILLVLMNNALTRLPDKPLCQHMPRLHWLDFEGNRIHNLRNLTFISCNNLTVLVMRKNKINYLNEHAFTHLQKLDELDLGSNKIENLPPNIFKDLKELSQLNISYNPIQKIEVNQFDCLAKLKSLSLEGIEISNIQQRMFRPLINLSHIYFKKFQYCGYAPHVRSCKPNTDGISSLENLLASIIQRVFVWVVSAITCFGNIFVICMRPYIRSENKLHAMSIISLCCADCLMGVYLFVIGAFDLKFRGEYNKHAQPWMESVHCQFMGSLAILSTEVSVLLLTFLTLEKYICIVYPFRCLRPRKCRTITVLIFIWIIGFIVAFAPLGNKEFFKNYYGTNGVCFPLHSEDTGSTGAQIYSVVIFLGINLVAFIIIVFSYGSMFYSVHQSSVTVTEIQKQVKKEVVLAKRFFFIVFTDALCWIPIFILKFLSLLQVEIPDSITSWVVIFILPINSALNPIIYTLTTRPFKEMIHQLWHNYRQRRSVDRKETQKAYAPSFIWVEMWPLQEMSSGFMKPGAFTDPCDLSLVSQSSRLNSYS

Test [2] concerns the target T2, human RXFP2 (human, UniProt Q8WXD0 1-754).
The target in test [3] is T3, human RXFP1 (human, UniProt Q9HBX9 1-757).
T3 sequence (looked up): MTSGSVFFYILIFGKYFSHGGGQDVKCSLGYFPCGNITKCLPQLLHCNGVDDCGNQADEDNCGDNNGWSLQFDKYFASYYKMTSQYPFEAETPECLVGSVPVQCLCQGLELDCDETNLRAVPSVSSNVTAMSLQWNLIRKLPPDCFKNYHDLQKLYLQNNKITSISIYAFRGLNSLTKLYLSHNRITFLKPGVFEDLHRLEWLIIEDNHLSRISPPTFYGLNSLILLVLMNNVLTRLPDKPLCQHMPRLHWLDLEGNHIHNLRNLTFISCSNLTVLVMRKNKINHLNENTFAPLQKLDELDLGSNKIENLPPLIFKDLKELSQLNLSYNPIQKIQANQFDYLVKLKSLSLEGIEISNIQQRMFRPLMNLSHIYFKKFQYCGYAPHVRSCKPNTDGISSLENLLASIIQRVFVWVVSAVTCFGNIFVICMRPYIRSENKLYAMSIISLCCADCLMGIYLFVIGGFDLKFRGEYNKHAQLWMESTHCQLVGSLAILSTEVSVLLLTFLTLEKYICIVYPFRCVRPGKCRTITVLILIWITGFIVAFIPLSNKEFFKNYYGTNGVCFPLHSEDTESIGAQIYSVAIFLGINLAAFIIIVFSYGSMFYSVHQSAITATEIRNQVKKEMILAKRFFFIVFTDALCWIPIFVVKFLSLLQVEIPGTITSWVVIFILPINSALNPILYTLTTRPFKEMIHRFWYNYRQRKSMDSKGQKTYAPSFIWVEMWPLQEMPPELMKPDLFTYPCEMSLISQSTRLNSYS

In test [4] the target is T1, mouse RXFP1. The source holds these as a separate data set.
Test [5] concerns the target T2, human RXFP2. The source holds these as a separate data set.
Test [6] has as its target T3, human RXFP1. This is another data set of the same source.

Changes are numbered by the printed parent chain. Read-outs that look alike come from different tables or passages of the source.

T2 sequence (Q8WXD0 whole entry): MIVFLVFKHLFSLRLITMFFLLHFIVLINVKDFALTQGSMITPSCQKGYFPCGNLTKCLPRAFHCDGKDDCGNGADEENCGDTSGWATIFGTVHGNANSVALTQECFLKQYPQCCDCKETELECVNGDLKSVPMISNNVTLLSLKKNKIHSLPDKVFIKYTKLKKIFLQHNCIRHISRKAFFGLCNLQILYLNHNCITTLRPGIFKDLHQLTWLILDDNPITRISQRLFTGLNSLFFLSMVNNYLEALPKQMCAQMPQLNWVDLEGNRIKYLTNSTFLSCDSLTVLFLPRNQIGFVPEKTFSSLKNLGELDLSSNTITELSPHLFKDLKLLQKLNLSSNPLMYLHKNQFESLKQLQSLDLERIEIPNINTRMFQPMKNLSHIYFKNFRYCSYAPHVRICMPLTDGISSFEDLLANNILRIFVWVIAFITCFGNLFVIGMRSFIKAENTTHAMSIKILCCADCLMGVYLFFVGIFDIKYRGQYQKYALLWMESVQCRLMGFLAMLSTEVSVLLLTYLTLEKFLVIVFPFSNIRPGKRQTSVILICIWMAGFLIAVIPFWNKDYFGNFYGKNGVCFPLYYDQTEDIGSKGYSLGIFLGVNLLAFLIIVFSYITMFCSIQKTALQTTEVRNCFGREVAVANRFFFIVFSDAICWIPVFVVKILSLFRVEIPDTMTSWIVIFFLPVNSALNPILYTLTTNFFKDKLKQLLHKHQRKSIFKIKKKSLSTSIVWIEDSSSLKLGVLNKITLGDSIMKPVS

B1: RELAX0110 (Fc fusion)
chain 1: DKTHTCPPCPAPEFEGGPSVFLFPPKPKDTLMISRTPEVTCVVVDVSHEDPEVKFNWYVDGVEVHNAKTKPREEQYNSTYRVVSVLTVLHQDWLNGKEYKCKVSNKALPASIEKTISKAKGQPREPQVYTLPPCREEMTKNQVSLWCLVKGFYPSDIAVEWESNGQPENNYKTTPPVLDSDGSFFLYSKLTVDKSRWQQGNVFSCSVMHEALHNHYTQKSLSLSPGGGGGSGGGGGSQLYSALANKCCHVGCTKRSLARFC
chain 2: DKTHTCPPCPAPEFEGGPSVFLFPPKPKDTLMISRTPEVTCVVVDVSHEDPEVKFNWYVDGVEVHNAKTKPREEQYNSTYRVVSVLTVLHQDWLNGKEYKCKVSNKALPASIEKTISKAKGQPREPQVYTLPPCREEMTKNQVSLWCLVKGFYPSDIAVEWESNGQPENNYKTTPPVLDSDGSFFLYSKLTVDKSRWQQGNVFSCSVMHEALHNHYTQKSLSLSPGAAPAPAPAPAPAPAGSSWMEEVIKLCGRELVRAQIAICGMSTWS
With B1, the “EC50 mRXFP1 (M), cAMP assay” value with mouse RXFP1 [1] was 1.11e-09 M. Also, the “EC50 hRXFP2 (M), cAMP assay” value in the test with human RXFP2 [2] is more than 6.07e-08 M. The “EC50 hRXFP1 (M), cAMP assay” value with human RXFP1 [3] amounted to 1.88e-09 M.

B2: RELAX0111 (Fc fusion)
chain 1: DKTHTCPPCPAPEFEGGPSVFLFPPKPKDTLMISRTPEVTCVVVDVSHEDPEVKFNWYVDGVEVHNAKTKPREEQYNSTYRVVSVLTVLHQDWLNGKEYKCKVSNKALPASIEKTISKAKGQPREPQVYTLPPCREEMTKNQVSLWCLVKGFYPSDIAVEWESNGQPENNYKTTPPVLDSDGSFFLYSKLTVDKSRWQQGNVFSCSVMHEALHNHYTQKSLSLSPGGGGGGSQLYSALANKCCHVGCTKRSLARFC
chain 2: B1 chain 2
Consider B2, for which the “EC50 mRXFP1 (M), cAMP assay” value with mouse RXFP1 [1] worked out at 1.24e-09 M. The “EC50 hRXFP2 (M), cAMP assay” value with human RXFP2 [2] is more than 6.06e-08 M. The “EC50 hRXFP1 (M), cAMP assay” value with human RXFP1 [3] came to 1.93e-09 M.

B3: RELAX0039 (Fc fusion)
chain 1: DKTHTACPPCPAPEFEGGPSVFLFPPKPKDTLMISRTPEVTCVVVDVSHEDPEVKFNWYVDGVEVHNAKTKPREEQYNSTYRVVSVLTVLHQDWLNGKEYKCKVSNKALPASIEKTISKAKGQPREPQVYTLPPCREEMTKNQVSLWCLVKGFYPSDIAVEWESNGQPENNYKTTPPVLDSDGSFFLYSKLTVDKSRWQQGNVFSCSVMHEALHNHYTQKSLSLSPGGGGGSGGGGSGGGGSGGGGGSQLYSALANMCCHVGCTKRSLARFC
chain 2: DKTHTCPPCPAPEFEGGPSVFLFPPKPKDTLMISRTPEVTCVVVDVSHEDPEVKFNWYVDGVEVHNAKTKPREEQYNSTYRVVSVLTVLHQDWLNGKEYKCKVSNKALPASIEKTISKAKGQPREPQVCTLPPSREEMTKNQVSLSCAVKGFYPSDIAVEWESNGQPENNYKTTPPVLDSDGSFFLVSKLTVDKSRWQQGNVFSCSVMHEALHNHYTQKSLSLSPGGGGGSGGGGSGGGGSGGGGGSSWMEEVIKLCGRELVRAQIAICGMSTWS
As to B3, the “EC50 mRXFP1 (M), cAMP assay” value with mouse RXFP1 [4] was found to be 4.25e-11 M. Further, the “EC50 hRXFP2 (M), cAMP assay” value in the test with human RXFP2 [5] is 1.08e-07 M. Further, the “EC50 hRXFP1 (M), cAMP assay” value in the test with human RXFP1 [6] was 6.54e-11 M.

B4: RELAX0072 (Fc fusion)
chain 1: DKTHTCPPCPAPEFEGGPSVFLFPPKPKDTLMISRTPEVTCVVVDVSHEDPEVKFNWYVDGVEVHNAKTKPREEQYNSTYRVVSVLTVLHQDWLNGKEYKCKVSNKALPASIEKTISKAKGQPREPQVYTLPPCREEMTKNQVSLWCLVKGFYPSDIAVEWESNGQPENNYKTTPPVLDSDGSFFLYSKLTVDKSRWQQGNVFSCSVMHEALHNHYTQKSLSLSPGGGGGSGGGGSGGGGSGGGGGSQLYSALANKCCHVGCTKRSLAAFC
chain 2: B3 chain 2
For B4, the “EC50 mRXFP1 (M), cAMP assay” value with mouse RXFP1 [4] came out at 4.03e-11 M. For the same molecule, in the test with human RXFP2 [5], the “EC50 hRXFP2 (M), cAMP assay” value was more than 2.3e-07 M. Moreover, the “EC50 hRXFP1 (M), cAMP assay” value with human RXFP1 [6] came to 8.53e-11 M.

B5: RELAX0075 (Fc fusion)
chain 1: B4 chain 1 with A269R, F270I
chain 2: B3 chain 2
Consider B5, for which the “EC50 mRXFP1 (M), cAMP assay” value with mouse RXFP1 [4] is 6.14e-11 M. Besides, the “EC50 hRXFP2 (M), cAMP assay” value with human RXFP2 [5] was more than 1.43e-07 M. Besides, the “EC50 hRXFP1 (M), cAMP assay” value with human RXFP1 [6] was determined as 9.47e-11 M.

B6: RELAX0040 (Fc fusion)
chain 1: B3 chain 1 with M257L
chain 2: B3 chain 2
As for B6, the “EC50 mRXFP1 (M), cAMP assay” value in the test with mouse RXFP1 [4] was determined as 2.92e-11 M. Further, the “EC50 hRXFP2 (M), cAMP assay” value with human RXFP2 [5] is more than 1.27e-07 M. For the same molecule, the “EC50 hRXFP1 (M), cAMP assay” value with human RXFP1 [6] is 5.92e-11 M.

B7: RELAX0063 (Fc fusion)
chain 1: B4 chain 1 with A269R, F270A
chain 2: B3 chain 2
With B7, in the test with mouse RXFP1 [4], the “EC50 mRXFP1 (M), cAMP assay” value amounted to 4.46e-11 M. For the same molecule, in the test with human RXFP2 [5], the “EC50 hRXFP2 (M), cAMP assay” value was more than 1.38e-07 M. Further, the “EC50 hRXFP1 (M), cAMP assay” value with human RXFP1 [6] was determined as 1.96e-10 M.

B8: RELAX0070 (Fc fusion)
chain 1: B4 chain 1 with A269I
chain 2: B3 chain 2
Consider B8, for which, in the test with mouse RXFP1 [4], the “EC50 mRXFP1 (M), cAMP assay” value was found to be 5.02e-11 M. Besides, in the test with human RXFP2 [5], the “EC50 hRXFP2 (M), cAMP assay” value came out at 1.07e-07 M. In addition, the “EC50 hRXFP1 (M), cAMP assay” value with human RXFP1 [6] worked out at 6.67e-11 M.

B9: RELAX0073 (Fc fusion)
chain 1: B4 chain 1 with A269Y
chain 2: B3 chain 2
Regarding B9, in the test with mouse RXFP1 [4], the “EC50 mRXFP1 (M), cAMP assay” value was determined as 4.15e-11 M. For the same molecule, in the test with human RXFP2 [5], the “EC50 hRXFP2 (M), cAMP assay” value was found to be 8.63e-08 M. For the same molecule, the “EC50 hRXFP1 (M), cAMP assay” value with human RXFP1 [6] was determined as 5.7e-11 M.

B10: RELAX0053 (Fc fusion)
chain 1: B3 chain 1 with M257K, R266H
chain 2: B3 chain 2
Regarding B10, the “EC50 mRXFP1 (M), cAMP assay” value with mouse RXFP1 [4] was 4.36e-11 M. Moreover, in the test with human RXFP2 [5], the “EC50 hRXFP2 (M), cAMP assay” value was more than 1.79e-07 M. In the test with human RXFP1 [6], the “EC50 hRXFP1 (M), cAMP assay” value turned out to be 7.15e-11 M.

B11: RELAX0041 (Fc fusion)
chain 1: B3 chain 1 with M257H
chain 2: B3 chain 2
Turning to B11, the “EC50 mRXFP1 (M), cAMP assay” value in the test with mouse RXFP1 [4] was 3.17e-11 M. Moreover, the “EC50 hRXFP2 (M), cAMP assay” value with human RXFP2 [5] came out at 1.18e-07 M. In the test with human RXFP1 [6], the “EC50 hRXFP1 (M), cAMP assay” value stood at 6.22e-11 M.

B12: RELAX0071 (Fc fusion)
chain 1: B4 chain 1 with A269Q
chain 2: B3 chain 2
On to B12, for which, in the test with mouse RXFP1 [4], the “EC50 mRXFP1 (M), cAMP assay” value is 3.93e-11 M. Also, the “EC50 hRXFP2 (M), cAMP assay” value in the test with human RXFP2 [5] worked out at 1.15e-07 M. Further, the “EC50 hRXFP1 (M), cAMP assay” value with human RXFP1 [6] was 6.87e-11 M.

B13: RELAX0069 (Fc fusion)
chain 1: B4 chain 1 with A269M
chain 2: B3 chain 2
Take B13: in the test with mouse RXFP1 [4], the “EC50 mRXFP1 (M), cAMP assay” value worked out at 3.69e-11 M. The “EC50 hRXFP2 (M), cAMP assay” value with human RXFP2 [5] was more than 1.62e-07 M. In addition, the “EC50 hRXFP1 (M), cAMP assay” value with human RXFP1 [6] turned out to be 5.76e-11 M.

B14: RELAX0043 (Fc fusion)
chain 1: B3 chain 1 with M257E
chain 2: B3 chain 2
Turning to B14, the “EC50 mRXFP1 (M), cAMP assay” value in the test with mouse RXFP1 [4] came out at 5.58e-11 M. The “EC50 hRXFP2 (M), cAMP assay” value with human RXFP2 [5] is more than 1.58e-07 M. The “EC50 hRXFP1 (M), cAMP assay” value in the test with human RXFP1 [6] was 7.98e-11 M.

B15: RELAX0074 (Fc fusion)
chain 1: B4 chain 1 with A269S
chain 2: B3 chain 2
On to B15, for which the “EC50 mRXFP1 (M), cAMP assay” value with mouse RXFP1 [4] was 4.53e-11 M. In the test with human RXFP2 [5], the “EC50 hRXFP2 (M), cAMP assay” value was determined as 9.21e-08 M. For the same molecule, the “EC50 hRXFP1 (M), cAMP assay” value with human RXFP1 [6] was 5.45e-11 M.

B16: RELAX0052 (Fc fusion)
chain 1: B3 chain 1 with M257K, R266E
chain 2: B3 chain 2
For B16, the “EC50 mRXFP1 (M), cAMP assay” value with mouse RXFP1 [4] turned out to be 5.69e-11 M. For the same molecule, in the test with human RXFP2 [5], the “EC50 hRXFP2 (M), cAMP assay” value was determined as 1.05e-07 M. Further, in the test with human RXFP1 [6], the “EC50 hRXFP1 (M), cAMP assay” value came out at 9.67e-11 M.
